Assays:
recombinant γc-Fc = target: T1, recombinant γc-Fc (Homo sapiens (Human), UniProt P31785 23-262); assay: ELISA on coated γc-Fc ('Binding to IL-2RG (Fc)'), biotinylated antibody, streptavidin-HRP, the axis is [Ab]/nM
T1 construct: also called CD132-Fc; not shown: Fc part of the fusion not described
T1 sequence: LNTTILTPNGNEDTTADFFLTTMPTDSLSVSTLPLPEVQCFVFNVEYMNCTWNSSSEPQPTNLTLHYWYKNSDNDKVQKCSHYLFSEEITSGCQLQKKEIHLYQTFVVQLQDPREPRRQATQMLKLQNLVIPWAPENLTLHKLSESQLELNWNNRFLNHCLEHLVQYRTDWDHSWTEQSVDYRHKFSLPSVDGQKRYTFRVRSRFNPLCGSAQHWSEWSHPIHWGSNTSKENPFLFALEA
Procedure: (§1) Binding of P2C4/P1A3 to IL-2Rβ or γc was measured by ELISA analysis, using recombinant IL-2Rβ-Fc and γc-Fc coated on maxisorp plates.
(§2) Biotinylated P2C4/P1A3 was added at various concentrations. Detection of binding was performed using a colorimetric assay using HRP-conjugated streptavidin which converts TMB substrate to a blue solution. The reaction was stopped using hydrochloric acid, and absorbance was measured at 450 nm and 670 nm.

recombinant IL-2Rβ-Fc = target: T2, recombinant IL-2Rβ-Fc (Homo sapiens (Human), UniProt P14784 27-240); assay: ELISA on coated IL-2Rβ-Fc ('Binding to IL-2RB (Fc)'), biotinylated antibody, streptavidin-HRP, the axis is [Ab]/nM
T2 construct: also called CD122-Fc; not shown: Fc part of the fusion not described
T2 sequence: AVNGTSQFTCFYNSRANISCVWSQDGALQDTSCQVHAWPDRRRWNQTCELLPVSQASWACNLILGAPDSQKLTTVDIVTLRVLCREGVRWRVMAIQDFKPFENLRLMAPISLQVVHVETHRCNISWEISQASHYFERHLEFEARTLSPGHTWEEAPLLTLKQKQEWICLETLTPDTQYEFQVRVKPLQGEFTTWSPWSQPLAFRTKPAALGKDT
Procedure: as §1, §2

monomeric IL-2Rβ = target: T3, monomeric IL-2Rβ (Homo sapiens (Human), UniProt P14784 27-240, limits assumed); assay: BLI, antibody captured on anti-human Fc biosensor tips, monomeric IL-2Rβ in solution, 1:1 Langmuir fit
T3 construct: Neither the limits nor the species of the construct are stated; also called CD122
T3 sequence: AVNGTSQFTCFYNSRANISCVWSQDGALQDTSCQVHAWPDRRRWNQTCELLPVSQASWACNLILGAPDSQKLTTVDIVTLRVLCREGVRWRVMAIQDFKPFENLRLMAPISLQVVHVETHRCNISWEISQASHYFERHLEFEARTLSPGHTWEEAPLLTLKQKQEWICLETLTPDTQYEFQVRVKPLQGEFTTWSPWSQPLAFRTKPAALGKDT
Procedure: (§3) The affinity of binding of P2C4/P1A3 and P2C4/P1A10 to IL-2Rβ and γc was measured by Bio-Layer Interferometry (BLI).
(§4) P2C4/P1A3 or P2C4/P1A10 were captured on anti-human Fc biosensor tips, and 5 different concentrations of monomeric IL-2Rβ or γc were allowed to bind to the captured antibodies. Dissociation of the antigen from the immobilised antibodies was performed for 5 min. Binding affinity was calculated by fitting binding curves using the 1:1 Langmuir model.

monomeric γc = target: T4, monomeric γc (Homo sapiens (Human), UniProt P31785 23-262, limits assumed); assay: BLI, antibody captured on anti-human Fc biosensor tips, monomeric γc in solution, 1:1 Langmuir fit
T4 construct: Neither the limits nor the species of the construct are stated; also called CD132; common γ chain
T4 sequence: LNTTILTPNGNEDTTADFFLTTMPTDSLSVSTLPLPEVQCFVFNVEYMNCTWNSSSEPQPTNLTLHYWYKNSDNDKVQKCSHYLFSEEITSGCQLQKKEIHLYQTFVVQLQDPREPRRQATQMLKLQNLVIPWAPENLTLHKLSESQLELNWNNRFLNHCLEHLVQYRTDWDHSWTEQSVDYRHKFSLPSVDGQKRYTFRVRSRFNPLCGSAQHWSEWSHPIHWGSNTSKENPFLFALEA
Procedure: as §3, §4

B1: P2C4/P1A3 Crossmab (bispecific antibody, V domains shown)
VH 1: EVQLVQSGAEVKKPGSSVKVSCKASGYTFTNYYMHWVRQAPGQGLEWMGAIMPSRGGTSYPQKFQGRVTMTGDTSTSTVYMELSSLRSEDTAVYYCARGEYYYDSSGYYYWGQGTLVTVSS
VL 1: QSALTQPASVSGSPGQSIAISCTGTSSDIGHYDFVSWYQQHPGTAPKLIIYDINNRPSGISNRFSGSKSDNMASLTISGLQPEDEADYYCSAYTSSDTLVFGGGTKLTVL
VH 2: QVQLQQWGAGLLKPSETLSLTCAVYGGSFSGYYWSWIRQPPGKGLEWIGEINHSGSTNYNPSLKSRATISVDTSKNQFSLKLSSVTAADTAVYYCATSPGGYSGGYFQHWGQGTLVTVSS
VL 2: not shown
modifications: Biotinylated for the ELISA; site not given.
notes: also called Fab (P2C4): Fab (P1A3) in CrossMab format; copies: 1 + 1 + 1 + 1
EC50 (recombinant γc-Fc): 0.0212 µM | EC50 (recombinant IL-2Rβ-Fc): 0.000772 µM

B2: P2C4/P1A10 bispecific anti-IL-2Rβ/γc antibody, scFv-KiH-Fc format (bispecific antibody)
chain 1: not shown
chain 2: QVQLQQSGAEVKKPGSSVKVSCKASGGTFSSYAISWVRQAPGQGLEWMGGFDPEDGETIYAQKFQGRVTMTEDTSTDTAYMELSSLRSEDTAVYYCATDLRIPYYYDNPWGQGTLVTVSSGGGGSGGGGSGGGGSEIVLTQSPLSLPVTPGEPASISCRSSQSLLHSNGYNYLNWYLQKPGQSPQLLIYLGSDRASGVPDRFSGSGSGTDFTLKISRVEAEDVGVYYCMQALQTPTTFGGGTKVEIKNSGAGTAAATHTCPPCPAPEAAGGPSVFLFPPKPKDTLMISRTPEVTCVVVDVSHEDPEVKFNWYVDGVEVHNAKTKPREEQYNSTYRVVSVLTVLHQDWLNGKEYKCKVSNKALPAPIEKTISKAKGQPREPQVCTLPPSRDELTKNQVSLSCAVKGFYPSDIAVEWESNGQPENNYKTTPPVLDSDGSFFLVSKLTVDKSRWQQGNVFSCSVMHEALHNHYTQKSLSLSPGK
Kd (monomeric IL-2Rβ): 0.0282 µM | koff (monomeric IL-2Rβ): 0.0044 s⁻¹ | kon (monomeric IL-2Rβ): 156000 M⁻¹ s⁻¹ | Kd (monomeric γc): 0.0618 µM | koff (monomeric γc): 0.00961 s⁻¹ | kon (monomeric γc): 156000 M⁻¹ s⁻¹

B3: P2C4_FW2/P1A3_FW2 (bispecific antibody)
chain 1: not shown
chain 2: EVQLVESGGGLVQPGGSLRLSCAASGGSFSGYYWSWVRQAPGKGLEWVSEINHSGSTNYNPSLKSRFTISRDNSKNTLYLQMNSLRAEDTAVYYCARSPGGYSGGYFQHWGQGTLVTVSSGGGGSGGGGSGGGGSDIQMTQSPSSLSASVGDRVTITCRSSQSLLHSNGYNYLDWYQQKPGKAPKLLIYLGSNRDSGVPSRFSGSGSGTDFTLTISSLQPEDFATYYCMQGTHWPWTFGQGTKVEIKNSGAGTAAATHTCPPCPAPEAAGGPSVFLFPPKPKDTLMISRTPEVTCVVVDVSHEDPEVKFNWYVDGVEVHNAKTKPREEQYNSTYRVVSVLTVLHQDWLNGKEYKCKVSNKALPAPIEKTISKAKGQPREPQVCTLPPSRDELTKNQVSLSCAVKGFYPSDIAVEWESNGQPENNYKTTPPVLDSDGSFFLVSKLTVDKSRWQQGNVFSCSVMHEALHNHYTQKSLSLSPGK
modifications: Biotinylated for the ELISA; site not given.
notes: also called scFv (P2C4_FW2): scFv (P1A3_FW2)-KiH-Fc
EC50 (recombinant γc-Fc): 0.0488 µM | EC50 (recombinant IL-2Rβ-Fc): 0.00192 µM
